In the data set the test system is Escherichia coli TOP10. The data set can be described thus: shrunken log2 fold change of peptide-encoding DNA abundance (4.5 h post-induction vs induction); higher = less antimicrobial activity (less host growth inhibition). As to conditions: time post-induction: 4.5 h; library: site-saturation at positions 5, 18, 19, 20.
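Also: peptides expressed intracellularly from a pBAD plasmid library in pooled LB shake-flask culture, induced with 0.3% L-arabinose, DNA abundance read by NGS, three biological replicates, DESeq2 with apeglm shrinkage.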

For RRIRLRPPRLPRPRPRPTHTPRP, the “shrunken log2 fold change” value was -0.158.

As for RRIRTRPPRLPRPRPRPTIYPRP, the “shrunken log2 fold change” value was -0.409.

As for RRIRTRPPRLPRPRPRPQMYPRP, the “shrunken log2 fold change” value was -0.148.

Turning to RRIRWRPPRLPRPRPRPRGHPRP, the “shrunken log2 fold change” value amounted to 0.404.

Turning to RRIRIRPPRLPRPRPRPKDWPRP, the “shrunken log2 fold change” value was 0.299.

For RRIRTRPPRLPRPRPRPFQCPRP, the “shrunken log2 fold change” value was -0.0173.

Turning to RRIRIRPPRLPRPRPRPDHYPRP, the “shrunken log2 fold change” value was -0.38.

Regarding RRIRMRPPRLPRPRPRPGRLPRP, the “shrunken log2 fold change” value was 0.411.

Consider RRIRMRPPRLPRPRPRPYILPRP, for which the “shrunken log2 fold change” value was -1.08.

In the case of RRIRERPPRLPRPRPRPECGPRP, the “shrunken log2 fold change” value stood at 0.612.

As to RRIRYRPPRLPRPRPRPAAEPRP, the “shrunken log2 fold change” value turned out to be 0.22.

RRIRLRPPRLPRPRPRPNESPRP: the “shrunken log2 fold change” value was -0.00771.

As to RRIRLRPPRLPRPRPRPCEGPRP, the “shrunken log2 fold change” value is -0.199.

Turning to RRIRERPPRLPRPRPRPTQEPRP, the “shrunken log2 fold change” value was 0.0237.

With RRIRTRPPRLPRPRPRPEIPPRP, the “shrunken log2 fold change” value is -0.104.

Turning to RRIRMRPPRLPRPRPRPGEFPRP, the “shrunken log2 fold change” value turned out to be 0.00408.

Turning to RRIRQRPPRLPRPRPRPLWVPRP, the “shrunken log2 fold change” value turned out to be 0.221.

Turning to RRIRYRPPRLPRPRPRPKLGPRP, the “shrunken log2 fold change” value was -0.0974.

As for RRIRHRPPRLPRPRPRPQKFPRP, the “shrunken log2 fold change” value was -0.0301.

Turning to RRIRWRPPRLPRPRPRPTNIPRP, the “shrunken log2 fold change” value is -0.509.

As for RRIRSRPPRLPRPRPRPSSQPRP, the “shrunken log2 fold change” value amounted to 0.0487.

RRIRGRPPRLPRPRPRPLRQPRP: the “shrunken log2 fold change” value came to 0.62.

Regarding RRIRRRPPRLPRPRPRPPSFPRP, the “shrunken log2 fold change” value was 0.251.

RRIRLRPPRLPRPRPRPTKWPRP: the “shrunken log2 fold change” value was -0.0762.

As for RRIRYRPPRLPRPRPRPSVAPRP, the “shrunken log2 fold change” value is -0.183.

With RRIRKRPPRLPRPRPRPCNHPRP, the “shrunken log2 fold change” value was -0.16.

Regarding RRIRTRPPRLPRPRPRPRSHPRP, the “shrunken log2 fold change” value is 0.109.

On to RRIRNRPPRLPRPRPRPTDDPRP, for which the “shrunken log2 fold change” value was 0.0875.

On to RRIRNRPPRLPRPRPRPNKKPRP, for which the “shrunken log2 fold change” value is -0.198.

Take RRIRLRPPRLPRPRPRPAFDPRP: the “shrunken log2 fold change” value is -0.0259.

With RRIRVRPPRLPRPRPRPHYDPRP, the “shrunken log2 fold change” value was -0.379.

RRIRWRPPRLPRPRPRPRPKPRP: the “shrunken log2 fold change” value was 0.697.

In the case of RRIRPRPPRLPRPRPRPWWDPRP, the “shrunken log2 fold change” value is -0.204.

As to RRIRRRPPRLPRPRPRPKLIPRP, the “shrunken log2 fold change” value is -0.395.

With RRIRLRPPRLPRPRPRPWSEPRP, the “shrunken log2 fold change” value is 0.0878.

RRIRFRPPRLPRPRPRPHDEPRP: the “shrunken log2 fold change” value is 0.099.

Take RRIRRRPPRLPRPRPRPWMKPRP: the “shrunken log2 fold change” value is -0.196.

On to RRIRDRPPRLPRPRPRPHFCPRP, for which the “shrunken log2 fold change” value came out at 0.23.

Consider RRIRARPPRLPRPRPRPQDFPRP, for which the “shrunken log2 fold change” value is -0.0122.

RRIRMRPPRLPRPRPRPMPTPRP: the “shrunken log2 fold change” value came out at 2.8.

Consider RRIRNRPPRLPRPRPRPFYYPRP, for which the “shrunken log2 fold change” value is -0.877.

For RRIRIRPPRLPRPRPRPMFTPRP, the “shrunken log2 fold change” value was -0.212.

On to RRIRTRPPRLPRPRPRPYPQPRP, for which the “shrunken log2 fold change” value is -0.14.

For RRIRQRPPRLPRPRPRPFACPRP, the “shrunken log2 fold change” value was -0.111.

As for RRIRQRPPRLPRPRPRPYTPPRP, the “shrunken log2 fold change” value is -0.856.

As to RRIRPRPPRLPRPRPRPCHVPRP, the “shrunken log2 fold change” value was -0.0695.

In the case of RRIRCRPPRLPRPRPRPKQFPRP, the “shrunken log2 fold change” value was -0.188.

For the sequence RRIRNRPPRLPRPRPRPVRCPRP, the “shrunken log2 fold change” value came out at 0.0872.

In the case of RRIRTRPPRLPRPRPRPNHWPRP, the “shrunken log2 fold change” value stood at 0.0032.

Take RRIRYRPPRLPRPRPRPAGQPRP: the “shrunken log2 fold change” value stood at 0.00356.

Take RRIRGRPPRLPRPRPRPLENPRP: the “shrunken log2 fold change” value was 0.766.

For the sequence RRIRWRPPRLPRPRPRPYRRPRP, the “shrunken log2 fold change” value is -0.0183.

As for RRIRLRPPRLPRPRPRPHYYPRP, the “shrunken log2 fold change” value is -0.438.

Consider RRIRARPPRLPRPRPRPAAMPRP, for which the “shrunken log2 fold change” value is 0.856.

Consider RRIRGRPPRLPRPRPRPVRQPRP, for which the “shrunken log2 fold change” value amounted to 0.883.

In the case of RRIRCRPPRLPRPRPRPHWVPRP, the “shrunken log2 fold change” value is -0.0374.

As to RRIRFRPPRLPRPRPRPWGDPRP, the “shrunken log2 fold change” value came to 0.00532.

For the sequence RRIRRRPPRLPRPRPRPCKHPRP, the “shrunken log2 fold change” value came out at 0.00883.

Take RRIRSRPPRLPRPRPRPYVPPRP: the “shrunken log2 fold change” value is -0.784.

For the sequence RRIRQRPPRLPRPRPRPFGRPRP, the “shrunken log2 fold change” value was 0.037.

In the case of RRIRFRPPRLPRPRPRPIRDPRP, the “shrunken log2 fold change” value is 0.0144.

Consider RRIRSRPPRLPRPRPRPLWGPRP, for which the “shrunken log2 fold change” value was -0.00343.

For the sequence RRIRWRPPRLPRPRPRPHQNPRP, the “shrunken log2 fold change” value is -0.00311.

Turning to RRIRVRPPRLPRPRPRPTMFPRP, the “shrunken log2 fold change” value is -0.158.

Consider RRIRRRPPRLPRPRPRPVPFPRP, for which the “shrunken log2 fold change” value stood at 0.0998.

Regarding RRIRNRPPRLPRPRPRPRPGPRP, the “shrunken log2 fold change” value was 0.638.

Regarding RRIRMRPPRLPRPRPRPWDPPRP, the “shrunken log2 fold change” value amounted to 0.287.

Regarding RRIRARPPRLPRPRPRPSKVPRP, the “shrunken log2 fold change” value is -0.0951.

Consider RRIRIRPPRLPRPRPRPKIPPRP, for which the “shrunken log2 fold change” value is -0.212.

In the case of RRIRQRPPRLPRPRPRPHWYPRP, the “shrunken log2 fold change” value was -0.0983.

In the case of RRIRCRPPRLPRPRPRPNQTPRP, the “shrunken log2 fold change” value was -0.185.

With RRIRARPPRLPRPRPRPDYHPRP, the “shrunken log2 fold change” value is -0.879.

With RRIRQRPPRLPRPRPRPLCRPRP, the “shrunken log2 fold change” value was -0.272.

On to RRIRRRPPRLPRPRPRPFRSPRP, for which the “shrunken log2 fold change” value was -0.0534.

As for RRIRNRPPRLPRPRPRPAVIPRP, the “shrunken log2 fold change” value was -0.277.

For the sequence RRIRWRPPRLPRPRPRPHVQPRP, the “shrunken log2 fold change” value is -0.209.

For the sequence RRIRDRPPRLPRPRPRPKNQPRP, the “shrunken log2 fold change” value is -0.076.

For the sequence RRIRTRPPRLPRPRPRPETVPRP, the “shrunken log2 fold change” value worked out at 0.0349.

Consider RRIRERPPRLPRPRPRPDKIPRP, for which the “shrunken log2 fold change” value was -0.0617.

Consider RRIRFRPPRLPRPRPRPKPEPRP, for which the “shrunken log2 fold change” value amounted to 0.37.

As for RRIRTRPPRLPRPRPRPFEWPRP, the “shrunken log2 fold change” value was -0.0651.

Consider RRIRVRPPRLPRPRPRPHLTPRP, for which the “shrunken log2 fold change” value is -0.333.

Turning to RRIRARPPRLPRPRPRPGMQPRP, the “shrunken log2 fold change” value was found to be 0.094.

RRIRVRPPRLPRPRPRPCHLPRP: the “shrunken log2 fold change” value was -0.00192.

Take RRIRVRPPRLPRPRPRPYAMPRP: the “shrunken log2 fold change” value was -0.11.

Take RRIRHRPPRLPRPRPRPEYVPRP: the “shrunken log2 fold change” value was -0.0134.

In the case of RRIRNRPPRLPRPRPRPINWPRP, the “shrunken log2 fold change” value is -0.133.

With RRIRHRPPRLPRPRPRPDKIPRP, the “shrunken log2 fold change” value was -0.042.

With RRIRIRPPRLPRPRPRPSRQPRP, the “shrunken log2 fold change” value was -0.747.

RRIRKRPPRLPRPRPRPWSGPRP: the “shrunken log2 fold change” value came out at 0.104.

Consider RRIRVRPPRLPRPRPRPHWPPRP, for which the “shrunken log2 fold change” value was -0.122.

With RRIRSRPPRLPRPRPRPNEFPRP, the “shrunken log2 fold change” value was found to be 0.00763.

As for RRIRCRPPRLPRPRPRPQEQPRP, the “shrunken log2 fold change” value turned out to be 0.0612.

As for RRIRGRPPRLPRPRPRPDHQPRP, the “shrunken log2 fold change” value was 0.12.

In the case of RRIRRRPPRLPRPRPRPEFTPRP, the “shrunken log2 fold change” value was found to be 0.0132.

Regarding RRIRARPPRLPRPRPRPWCLPRP, the “shrunken log2 fold change” value is -0.214.

In the case of RRIRNRPPRLPRPRPRPKTQPRP, the “shrunken log2 fold change” value was -0.0734.

Take RRIRSRPPRLPRPRPRPETMPRP: the “shrunken log2 fold change” value came out at 0.205.

With RRIRFRPPRLPRPRPRPADSPRP, the “shrunken log2 fold change” value was -0.187.

As for RRIRRRPPRLPRPRPRPCNDPRP, the “shrunken log2 fold change” value was -0.0872.

Consider RRIRVRPPRLPRPRPRPPRTPRP, for which the “shrunken log2 fold change” value was found to be 0.331.

In the case of RRIRTRPPRLPRPRPRPLNTPRP, the “shrunken log2 fold change” value is -0.602.

Turning to RRIRARPPRLPRPRPRPSNCPRP, the “shrunken log2 fold change” value was -0.285.

Turning to RRIRQRPPRLPRPRPRPLIAPRP, the “shrunken log2 fold change” value is -0.124.

Take RRIRARPPRLPRPRPRPCGHPRP: the “shrunken log2 fold change” value worked out at 0.0628.

Regarding RRIRNRPPRLPRPRPRPNGMPRP, the “shrunken log2 fold change” value is -0.00904.

In the case of RRIRWRPPRLPRPRPRPMQFPRP, the “shrunken log2 fold change” value was determined as 0.104.

Consider RRIRTRPPRLPRPRPRPAVMPRP, for which the “shrunken log2 fold change” value came to 0.06.

With RRIRGRPPRLPRPRPRPYDHPRP, the “shrunken log2 fold change” value was -0.181.

For the sequence RRIRTRPPRLPRPRPRPQPQPRP, the “shrunken log2 fold change” value is 0.222.

As to RRIRMRPPRLPRPRPRPTVYPRP, the “shrunken log2 fold change” value is -0.0666.

On to RRIRLRPPRLPRPRPRPQLNPRP, for which the “shrunken log2 fold change” value was -0.214.

As for RRIRFRPPRLPRPRPRPWMQPRP, the “shrunken log2 fold change” value is -0.139.

RRIRYRPPRLPRPRPRPHINPRP: the “shrunken log2 fold change” value was -0.806.

As to RRIRQRPPRLPRPRPRPYGMPRP, the “shrunken log2 fold change” value was -0.549.

Take RRIRGRPPRLPRPRPRPPMQPRP: the “shrunken log2 fold change” value amounted to 1.12.

As to RRIRYRPPRLPRPRPRPAQAPRP, the “shrunken log2 fold change” value turned out to be 0.0486.

Regarding RRIRKRPPRLPRPRPRPNWKPRP, the “shrunken log2 fold change” value was found to be 0.363.

Take RRIRMRPPRLPRPRPRPMPHPRP: the “shrunken log2 fold change” value worked out at 0.161.

Take RRIRVRPPRLPRPRPRPKGTPRP: the “shrunken log2 fold change” value was -0.171.

RRIRMRPPRLPRPRPRPIVGPRP: the “shrunken log2 fold change” value worked out at 0.108.

Regarding RRIRPRPPRLPRPRPRPCEMPRP, the “shrunken log2 fold change” value was found to be 2.11.

RRIRYRPPRLPRPRPRPDTLPRP: the “shrunken log2 fold change” value is -0.195.

Take RRIRFRPPRLPRPRPRPWAFPRP: the “shrunken log2 fold change” value is -0.161.

On to RRIRCRPPRLPRPRPRPQLVPRP, for which the “shrunken log2 fold change” value worked out at 0.569.
